Laboratory results: US20200140501A1 (published 2020)

Molecular target: T1, hNGAL lipocalin mutein SEQ ID NO: 1
T1 chain: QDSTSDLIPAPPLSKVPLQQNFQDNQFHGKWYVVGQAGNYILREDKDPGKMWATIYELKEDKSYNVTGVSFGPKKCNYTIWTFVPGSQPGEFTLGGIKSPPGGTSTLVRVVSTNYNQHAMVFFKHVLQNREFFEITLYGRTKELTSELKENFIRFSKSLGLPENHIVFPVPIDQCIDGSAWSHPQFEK
Assay: solution competition ELISA: ligand titrated against 0.1 nM SEQ ID NO: 1, free mutein captured on immobilised hAng-2
Method: In the following detailed experimental protocol, incubation and washing steps were performed as described above in the competition ELISA protocol (see Example 5).
The residual supernatants were discarded and 20 μl HRP-labeled anti-lipocalin-mutein antibody was added at a predetermined optimal concentration in PBS-T/BSA and incubated for 1 h at RT. […] After washing, 20 μl fluorogenic HRP substrate (Quantablue, Pierce) was added to each well, and the reaction was allowed to proceed for 60 minutes. The fluorescence intensity of every well on the plate was read using a Genios Plus Microplate reader (Tecan).

IC50: > 100 nM
B1: human angiopoietin-1 (Ang-1) (ligand, UniProt Q15389 20-498, looked up)
chain: SNQRRSPENSGRRYNRIQHGQCAYTFILPEHDGNCRESTTDQYNTNALQRDAPHVEPDFSSQKLQHLEHVMENYTQWLQKLENYIVENMKSEMAQIQQNAVQNHTATMLEIGTSLLSQTAEQTRKLTDVETQVLNQTSRLEIQLLENSLSTYKLEKQLLQQTNEILKIHEKNSLLEHKILEMEGKHKEELDTLKEEKENLQGLVTRQTYIIQELEKQLNRATTNNSVLQKQQLELMDTVHNLVNLCTKEGVLLKGGKREEEKPFRDCADVYQAGFNKSGIYTIYINNMPEPKKVFCNMDVNGGGWTVIQHREDGSLDFQRGWKEYKMGFGNPSGEYWLGNEFIFAITSQRQYMLRIELMDWEGNRAYSQYDRFHIGNEKQNYRLYLKGHTGTAGKQSSLILHGADFSTKDADNDNCMCKCALMLTGGWWFDACGPSNLNGMFYTAGQNHGKLNGIKWHYFKGPSYSLRSTTMMIRPLDF
notes: also called hAng-1; human Ang-1
